Consider two substances from PMC3882142.

The target of the experiment is bacteriophage P22 coat protein (CP), assembled as the P22 VLP capsid (bacteriophage P22) (UniProt P26747). Kind of experiment: SEC-MALS. (In gel filtration, larger molecules generally elute earlier.)
Sequence of UniProt P26747 (P26747 whole entry): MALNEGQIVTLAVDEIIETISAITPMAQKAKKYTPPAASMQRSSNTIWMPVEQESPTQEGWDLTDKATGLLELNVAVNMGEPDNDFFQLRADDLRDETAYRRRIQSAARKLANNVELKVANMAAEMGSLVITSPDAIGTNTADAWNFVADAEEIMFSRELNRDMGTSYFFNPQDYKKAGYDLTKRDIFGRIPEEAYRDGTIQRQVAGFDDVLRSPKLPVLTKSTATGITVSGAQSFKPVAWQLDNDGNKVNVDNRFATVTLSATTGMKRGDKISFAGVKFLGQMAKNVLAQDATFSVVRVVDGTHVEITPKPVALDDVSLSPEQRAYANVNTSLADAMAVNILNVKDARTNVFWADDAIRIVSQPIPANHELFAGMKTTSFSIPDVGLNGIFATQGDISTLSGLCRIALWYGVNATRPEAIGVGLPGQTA

Consider “GalA-SP fusion protein (alpha-galactosidase of Pyrococcus furiosus fused to the truncated scaffold protein of P22)”, for which the stoichiometry N (proteins per capsid) is 183.

“HA_(head)-SP fusion protein (hemagglutinin head of influenza fused to the truncated scaffold protein of P22)” yielded a stoichiometry N (proteins per capsid) of 286.
